B1: Nucleoporin p54 (Homo sapiens), Q7Z3B4 (parent)
chain: MAFNFGAPSGTSGTAAATAAPAGGFGGFGTTSTTAGSAFSFSAPTNTGTTGLFGGTQNKGFGFGTGFGTTTGTSTGLGTGLGTGLGFGGFNTQQQQQTTLGGLFSQPTQAPTQSNQLINTASALSAPTLLGDERDAILAKWNQLQAFWGTGKGYFNNNIPPVEFTQENPFCRFKAVGYSCMPSNKDEDGLVVLVFNKKETEIRSQQQQLVESLHKVLGGNQTLTVNVEGTKTLPDDQTEVVIYVVERSPNGTSRRVPATTLYAHFEQANIKTQLQQLGVTLSMTRTELSPAQIKQLLQNPPAGVDPIIWEQAKVDNPDSEKLIPVPMVGFKELLRRLKVQDQMTKQHQTRLDIISEDISELQKNQTTSVAKIAQYKRKLMDLSHRTLQVLIKQEIQRKSGYAIQADEEQLRVQLDTIQGELNAPTQFKGRLNELMSQIRMQNHFGAVRSEERYYIDADLLREIKQHLKQQQEGLSHLISIIKDDLEDIKLVEHGLNETIHIRGGVFS
partner: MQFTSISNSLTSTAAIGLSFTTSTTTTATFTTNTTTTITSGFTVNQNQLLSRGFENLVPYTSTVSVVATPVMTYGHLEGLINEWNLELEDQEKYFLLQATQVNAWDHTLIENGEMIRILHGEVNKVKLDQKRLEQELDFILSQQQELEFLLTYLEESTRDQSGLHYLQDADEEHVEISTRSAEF
B2: Trichoplein keratin filament-binding protein (Homo sapiens), Q9BT92 (parent)
chain: MALPTLPSYWCSQQRLNQQLARQREQEARLRQQWEQNSRYFRMSDICSSKQAEWSSKTSYQRSMHAYQREKMKEEKRRSLEARREKLRQLMQEEQDLLARELEELRLSMNLQERRIREQHGKLKSAKEEQRKLIAEQLLYEHWKKNNPKLREMELDLHQKHVVNSWEMQKEEKKQQEATAEQENKRYENEYERARREALERMKAEEERRQLEDKLQAEALLQQMEELKLKEVEATKLKKEQENLLKQRWELERLEEERKQMEAFRQKAELGRFLRHQYNAQLSRRTQQIQEELEADRRILQALLEKEDESQRLHLARREQVMADVAWMKQAIEEQLQLERAREAELQMLLREEAKEMWEKREAEWARERSARDRLMSEVLTGRQQQIQEKIEQNRRAQEESLKHREQLIRNLEEVRELARREKEESEKLKSARKQELEAQVAERRLQAWEADQQEEEEEEEARRVEQLSDALLQQEAETMAEQGYRPKPYGHPKIAWN
B3: Protein LDOC1 (Homo sapiens), O95751 (parent)
chain: MVDELVLLLHALLMRHRALSIENSQLMEQLRLLVCERASLLRQVRPPSCPVPFPETFNGESSRLPEFIVQTASYMLVNENRFCNDAMKVAFLISLLTGEAEEWVVPYIEMDSPILGDYRAFLDEMKQCFGWDDDEDDDDEEEEDDY
partner: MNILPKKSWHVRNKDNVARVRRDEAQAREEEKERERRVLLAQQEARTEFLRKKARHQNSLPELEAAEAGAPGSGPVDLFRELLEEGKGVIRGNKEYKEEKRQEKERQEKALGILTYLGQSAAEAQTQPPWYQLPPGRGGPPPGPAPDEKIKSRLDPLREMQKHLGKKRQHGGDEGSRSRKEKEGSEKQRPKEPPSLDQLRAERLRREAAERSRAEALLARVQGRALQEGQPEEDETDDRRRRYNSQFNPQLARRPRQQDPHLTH
B4: WASH complex subunit 3 (Homo sapiens), Q9Y3C0 (parent)
chain: MDEDGLPLMGSGIDLTKVPAIQQKRTVAFLNQFVVHTVQFLNRFSTVCEEKLADLSLRIQQIETTLNILDAKLSSIPGLDDVTVEVSPLNVTSVTNGAHPEATSEQPQQNSTQDSGLQESEVSAENILTVAKDPRYARYLKMVQVGVPVMAIRNKMISEGLDPDLLERPDAPVPDGESEKTVEESSDSESSFSD
partner: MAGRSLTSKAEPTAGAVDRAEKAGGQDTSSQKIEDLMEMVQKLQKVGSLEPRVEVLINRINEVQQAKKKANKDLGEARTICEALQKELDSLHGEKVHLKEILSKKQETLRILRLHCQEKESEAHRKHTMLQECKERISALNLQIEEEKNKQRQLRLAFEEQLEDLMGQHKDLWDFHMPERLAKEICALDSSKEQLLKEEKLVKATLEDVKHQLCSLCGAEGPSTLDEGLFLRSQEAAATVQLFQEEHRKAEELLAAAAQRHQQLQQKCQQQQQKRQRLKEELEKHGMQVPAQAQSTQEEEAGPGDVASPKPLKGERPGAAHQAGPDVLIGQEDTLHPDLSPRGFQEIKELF
B5: Zinc finger protein 774 (Homo sapiens), Q6NX45 (parent)
chain: MWLGTSGKSGLPGHCLENPLQECHPAQLEEWALKGISRPSVISQPEQKEEPWVLPLQNFEARKIPRESHTDCEHQVAKLNQDNSETAEQCGTSSERTNKDLSHTLSWGGNWEQGLELEGQHGTLPGEGQLESFSQERDLNKLLDGYVGEKPMCAECGKSFNQSSYLIRHLRTHTGERPYTCIECGKGFKQSSDLVTHRRTHTGEKPYQCKGCEKKFSDSSTLIKHQRTHTGERPYECPECGKTFGRKPHLIMHQRTHTGEKPYACLECHKSFSRSSNFITHQRTHTGVKPYRCNDCGESFSQSSDLIKHQRTHTGERPFKCPECGKGFRDSSHFVAHMSTHSGERPFSCPDCHKSFSQSSHLVTHQRTHTGERPFKCENCGKGFADSSALIKHQRIHTGERPYKCGECGKSFNQSSHFITHQRIHLGDRPYRCPECGKTFNQRSHFLTHQRTHTGEKPFHCSKCNKSFRQKAHLLCHQNTHLI

Variants of: B1
Details: with NUP62CL

Variant | effect of a mutation on the interaction
R385K | with no effect
N250S | with no effect

Variants of: B2
Details: with KRT15, P19012
Chain of KRT15, P19012 (P19012 whole entry): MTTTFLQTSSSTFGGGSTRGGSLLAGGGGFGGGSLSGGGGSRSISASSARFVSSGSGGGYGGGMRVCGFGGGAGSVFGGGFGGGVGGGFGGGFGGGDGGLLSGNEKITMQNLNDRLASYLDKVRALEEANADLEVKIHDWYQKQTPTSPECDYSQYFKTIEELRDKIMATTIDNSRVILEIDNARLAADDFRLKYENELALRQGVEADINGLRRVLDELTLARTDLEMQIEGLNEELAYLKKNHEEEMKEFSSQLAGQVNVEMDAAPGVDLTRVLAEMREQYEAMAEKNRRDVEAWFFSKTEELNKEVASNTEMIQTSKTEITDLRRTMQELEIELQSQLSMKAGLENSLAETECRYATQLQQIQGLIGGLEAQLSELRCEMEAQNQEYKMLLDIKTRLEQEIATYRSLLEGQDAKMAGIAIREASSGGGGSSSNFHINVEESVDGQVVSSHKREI

Variant | effect of a mutation on the interaction
R62Q | with no effect
K127R | with no effect

Variants of: B2
Details: with cdr2_human CDR2, Q01850
Chain of cdr2_human CDR2, Q01850 (Q01850 whole entry): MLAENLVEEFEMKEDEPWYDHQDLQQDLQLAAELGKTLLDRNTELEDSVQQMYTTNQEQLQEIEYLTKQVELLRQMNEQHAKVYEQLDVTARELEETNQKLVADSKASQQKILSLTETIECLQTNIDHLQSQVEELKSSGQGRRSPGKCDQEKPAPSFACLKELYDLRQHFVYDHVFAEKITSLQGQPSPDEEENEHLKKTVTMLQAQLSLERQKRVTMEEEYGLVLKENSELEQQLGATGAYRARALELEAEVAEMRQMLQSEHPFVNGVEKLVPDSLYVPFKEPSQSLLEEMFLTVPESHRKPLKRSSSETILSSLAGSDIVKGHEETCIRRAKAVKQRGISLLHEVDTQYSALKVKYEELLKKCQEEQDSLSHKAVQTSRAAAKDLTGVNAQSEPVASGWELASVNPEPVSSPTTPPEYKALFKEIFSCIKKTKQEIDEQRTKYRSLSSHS

Variant | effect of a mutation on the interaction
K127R | with no effect

Variants of: B2
Details: with ndk7_human NME7, Q9Y5B8
Chain of ndk7_human NME7, Q9Y5B8 (Q9Y5B8 whole entry): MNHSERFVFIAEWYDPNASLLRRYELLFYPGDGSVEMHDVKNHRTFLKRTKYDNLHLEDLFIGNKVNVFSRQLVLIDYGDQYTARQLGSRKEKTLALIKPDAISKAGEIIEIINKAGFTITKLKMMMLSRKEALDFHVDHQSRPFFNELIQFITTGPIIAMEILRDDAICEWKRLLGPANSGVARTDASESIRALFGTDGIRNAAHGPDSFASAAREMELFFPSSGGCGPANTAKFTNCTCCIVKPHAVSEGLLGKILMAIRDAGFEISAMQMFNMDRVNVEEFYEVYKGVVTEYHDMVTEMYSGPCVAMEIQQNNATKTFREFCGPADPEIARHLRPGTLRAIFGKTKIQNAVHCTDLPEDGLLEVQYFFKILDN

Variant | effect of a mutation on the interaction
K127R | with no effect
E417K | with no effect

Variants of: B3
Details: with leng1_human LENG1, Q96BZ8

Variant | effect of a mutation on the interaction
L12H | disrupting interaction strength

Variants of: B4
Details: with syce1_human SYCE1, Q8N0S2

Variant | effect of a mutation on the interaction
F44L | with no effect

Variants of: B5
Details: with ldoc1_human LDOC1, O95751

Variant | effect of a mutation on the interaction
V147I | with no effect
E183A | with no effect

Variants of: B5
Details: with trim1_human MID2, Q9UJV3
Chain of trim1_human MID2, Q9UJV3 (Q9UJV3 whole entry): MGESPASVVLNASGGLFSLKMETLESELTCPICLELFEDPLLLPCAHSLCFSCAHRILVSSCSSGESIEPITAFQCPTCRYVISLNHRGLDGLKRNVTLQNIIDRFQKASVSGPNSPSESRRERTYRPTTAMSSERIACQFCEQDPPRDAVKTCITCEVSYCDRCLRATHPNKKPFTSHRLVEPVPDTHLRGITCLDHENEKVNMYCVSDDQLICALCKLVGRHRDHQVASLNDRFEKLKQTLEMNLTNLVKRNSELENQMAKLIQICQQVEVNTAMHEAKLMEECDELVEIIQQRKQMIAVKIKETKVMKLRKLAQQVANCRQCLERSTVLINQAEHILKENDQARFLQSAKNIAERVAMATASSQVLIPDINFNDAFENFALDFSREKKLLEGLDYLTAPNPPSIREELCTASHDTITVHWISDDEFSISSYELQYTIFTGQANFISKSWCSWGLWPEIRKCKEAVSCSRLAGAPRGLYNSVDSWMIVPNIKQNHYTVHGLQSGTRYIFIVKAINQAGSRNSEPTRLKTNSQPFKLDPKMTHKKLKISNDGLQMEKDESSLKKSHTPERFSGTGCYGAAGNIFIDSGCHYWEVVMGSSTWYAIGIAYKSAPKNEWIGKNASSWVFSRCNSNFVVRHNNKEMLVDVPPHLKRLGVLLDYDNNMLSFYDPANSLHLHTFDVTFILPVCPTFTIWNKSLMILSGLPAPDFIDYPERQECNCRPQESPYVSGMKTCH

Variant | effect of a mutation on the interaction
P65L | with no effect

— IntAct's records for PubMed 31515488
